Paper PMC11897156, “Ex.50.T aptamer impairs tumor–stroma cross-talk in breast cancer by targeting gremlin-1”

Tests used:
[1] = target: T1, Gremlin-1 (recombinant) (UniProt O60565 25-184); experiment: SPR; GREM1 immobilized, aptamer 0.062-1 uM, 25 C; kon 3.39e4 M-1 s-1, koff 1.58e-3 s-1; Aptamer refolded 85 C 5 min, 4 C 2 min, 37 C 10 min; ELONA: PBS, 3% BSA block, 1 h; pull-down: 10 mM PBS with Ca2+ and Mg2+, room temperature; SPR at 25 C (buffer not in material); cell binding: serum-free medium, 37 C, 30 min; details: protein: commercial; chain copies: 2; label: biotin (ELONA, pull-down); none stated for SPR; hairpin; predicted stem of 11 bp, 2 internal loops, 1 terminal loop
T1 sequence: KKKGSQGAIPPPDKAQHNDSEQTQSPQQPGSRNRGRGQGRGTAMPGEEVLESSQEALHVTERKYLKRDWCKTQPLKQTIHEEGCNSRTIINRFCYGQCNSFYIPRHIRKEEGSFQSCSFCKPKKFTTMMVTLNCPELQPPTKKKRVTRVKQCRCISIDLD

[2] = target: T1, Gremlin-1 (recombinant); experiment: ELONA; apparent Kd; unit inferred, nM implied by agreement with SPR; GREM1 coated, 200 nM aptamer; Aptamer refolded 85 C 5 min, 4 C 2 min, 37 C 10 min; ELONA: PBS, 3% BSA block, 1 h; pull-down: 10 mM PBS with Ca2+ and Mg2+, room temperature; SPR at 25 C (buffer not in material); cell binding: serum-free medium, 37 C, 30 min; details: protein: commercial; chain copies: 2; label: biotin (ELONA, pull-down); none stated for SPR; hairpin; predicted stem of 11 bp, 2 internal loops, 1 terminal loop

B1: ex.50.T (structured_RNA)
RNA: UGUGGCAGUUAAGAAUAGAUCUUCGCUGCGAUU
modifications: lowercase u/c in printed sequence probably 2'-F pyrimidines (not stated in material)
Kd [1]: 46.7 nM | Kd [2]: 37.7 nM
